According to paper PMC9772228, “Structure of a RecT/Redβ family recombinase in complex with a duplex intermediate of DNA annealing”:

T1: LiRecT V98A (Listeria innocua CLIP 11262, UniProt Q92FL9 1-271, V98A)
T1 sequence: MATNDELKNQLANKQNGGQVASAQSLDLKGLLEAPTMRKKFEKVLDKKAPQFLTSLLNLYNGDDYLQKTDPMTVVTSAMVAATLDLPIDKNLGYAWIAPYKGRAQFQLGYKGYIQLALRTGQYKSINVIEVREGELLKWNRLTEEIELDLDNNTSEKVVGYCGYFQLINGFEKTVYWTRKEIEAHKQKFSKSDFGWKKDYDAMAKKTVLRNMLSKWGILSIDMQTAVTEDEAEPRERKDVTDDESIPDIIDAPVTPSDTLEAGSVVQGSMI

T2: LiRecT K191A/F194A (Listeria innocua CLIP 11262, UniProt Q92FL9 1-271, K191A;F194A)
T2 sequence: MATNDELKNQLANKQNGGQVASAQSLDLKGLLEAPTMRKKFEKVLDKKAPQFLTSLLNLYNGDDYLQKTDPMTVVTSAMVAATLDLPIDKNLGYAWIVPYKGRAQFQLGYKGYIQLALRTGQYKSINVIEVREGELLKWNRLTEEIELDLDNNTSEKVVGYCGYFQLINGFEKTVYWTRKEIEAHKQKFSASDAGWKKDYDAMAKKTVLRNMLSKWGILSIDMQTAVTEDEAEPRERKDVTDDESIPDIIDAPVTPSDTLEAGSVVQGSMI


Experiments:
[1] = molecular target: T1, LiRecT V98A; assay: EMSA; EMSA: PBS pH 7.4 (or KH2PO4/10 mM MgCl2 pH 6.0), 3.6 or 5 uM protein, 25 uM nt DNA, 37 C 15 min per strand, 0.8% agarose 1x TBE; cryo-EM: 20 mM KH2PO4 (Results: 10 mM), 10 mM MgCl2 pH 6.0, 37 C; native MS: 100 mM ammonium acetate pH 7, 37 C; details: protein: recombinant, tags: N-terminal 6His vector tag (20 aa) retained, chain copies: 10, single strand
[2] = molecular target: T2, LiRecT K191A/F194A; assay: as above; details: protein: recombinant, tags: N-terminal 6His vector tag (20 aa) retained, chain copies: 10, single strand

Binder | binding result ([1]; label: 5'-Cy3) | binding result ([2]; label: 5'-Cy3) | binding result ([1]; label: 5'-Cy5) | binding result ([2]; label: 5'-Cy5)
GCGGATGGCTTAGAGCAGAATCGCCCTGCATAGCTCGATTTTTGCGGATG (ssDNA) [Cy3-50mer] | binds | binds |  | 
CCATCCGCAAAAATCGAGCTATGCAGGGCGATTCTGCTCTAAGCCATCCG (ssDNA) [Cy5-50mer] |  |  | binds | binds
